# Measured values from patent publication WO2016171242A1 (dated 2016).
# T1: human EPHB1 without signal sequence, FLAG-tagged, expressed from pFLAG-EPHB1 (human, UniProt P54762 18-984)
# T1 construct: not shown: FLAG tag supplied by the vector pFLAG-GW
# T1 sequence: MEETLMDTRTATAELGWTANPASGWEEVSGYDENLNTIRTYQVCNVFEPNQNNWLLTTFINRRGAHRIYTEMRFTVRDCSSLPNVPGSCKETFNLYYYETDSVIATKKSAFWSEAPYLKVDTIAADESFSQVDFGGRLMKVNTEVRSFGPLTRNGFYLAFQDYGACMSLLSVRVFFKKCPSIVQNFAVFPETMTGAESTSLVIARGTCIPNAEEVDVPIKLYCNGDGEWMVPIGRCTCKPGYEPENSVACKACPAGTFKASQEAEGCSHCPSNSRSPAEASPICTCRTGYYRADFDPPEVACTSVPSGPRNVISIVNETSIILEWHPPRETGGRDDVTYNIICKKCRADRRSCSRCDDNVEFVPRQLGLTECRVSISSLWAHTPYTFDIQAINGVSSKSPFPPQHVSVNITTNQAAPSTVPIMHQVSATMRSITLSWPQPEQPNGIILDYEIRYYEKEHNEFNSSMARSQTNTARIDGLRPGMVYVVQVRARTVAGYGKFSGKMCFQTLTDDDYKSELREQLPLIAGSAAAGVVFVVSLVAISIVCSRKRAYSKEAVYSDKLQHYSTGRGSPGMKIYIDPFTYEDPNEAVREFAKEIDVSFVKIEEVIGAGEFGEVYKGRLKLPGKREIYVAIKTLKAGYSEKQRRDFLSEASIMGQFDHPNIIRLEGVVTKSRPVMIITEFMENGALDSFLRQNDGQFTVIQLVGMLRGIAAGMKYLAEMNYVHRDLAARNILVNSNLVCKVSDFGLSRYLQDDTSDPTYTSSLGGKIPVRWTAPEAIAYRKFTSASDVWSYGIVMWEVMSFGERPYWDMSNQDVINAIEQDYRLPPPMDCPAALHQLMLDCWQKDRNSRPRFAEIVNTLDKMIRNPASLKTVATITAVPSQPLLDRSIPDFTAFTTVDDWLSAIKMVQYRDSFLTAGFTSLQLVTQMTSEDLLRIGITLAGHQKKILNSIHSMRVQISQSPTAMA
# B1: mouse anti-human EPHA2 antibody A201 (antibody, V domains shown)
# VH: EVQLQQSGAELVKPGASVKLSCTVSGFTFKDTYVHWVKQRPEQGLEWIGRIDPANANTKYDPKFQGKASITADTSSNTAYLQLSSLPSEDTAVYYCAAYGKSAWFAYWGQGTLVTVSA
# VL: DIQMTQTTSSLSASLGDRVTISCRASQDIGNYLNWYQQKPDGTVKVLIYYTSRLHSGVPSRFSGSGSGTDYSLTISNLEQEDIATYFCQQGHSLPPTFGGGTKLEIKR
# notes: Mouse monoclonal antibody purified from hybridoma supernatant, isotype IgG1; also called A201 antibody
# B2: mouse anti-human EPHA2 antibody A205 (antibody, V domains shown)
# VH: QIQLVQSGPELKKPGETVKISCKASGYTFTDYSMNWVKQAPGKGLKWMGWINTYTGEPTYADDFKGRFAFSLETSASTAYLQINNLKNEDTATYFCASPISLLRLLDYWGQGTTLTVSS
# VL: DVVMTQTPLSLPVSLGDQASIPCRSSQSLVHSNGNTYLHWYLQKPGQSPKLLIYKVSNRFSGVPDRFSGSGSGTDFTLKISRVEAEDLGVYFCSQSTHVPWTFGGGTKLEIKR
# notes: Mouse monoclonal antibody purified from hybridoma supernatant, isotype IgG2b; also called A205 antibody
# Tests used:
# [1] = biological target: T1, human EPHB1 without signal sequence, …; test: flow cytometry on 293F cells transfected with pFLAG-EPHB1
# [2] = biological target: T2, human EPHA4 without signal sequence, FLAG-tagged, expressed from pFLAG-EPHA4 (human, UniProt P54764 20-986); test: immunohistochemistry on formalin-fixed, paraffin-embedded 293F cells transiently expressing EPHA4; antibody at 2.5 μg/mL
# T2 construct: also called EPHA4-expressing cells; not shown: FLAG tag supplied by the vector pFLAG-GW
# T2 sequence (P54764 20-986): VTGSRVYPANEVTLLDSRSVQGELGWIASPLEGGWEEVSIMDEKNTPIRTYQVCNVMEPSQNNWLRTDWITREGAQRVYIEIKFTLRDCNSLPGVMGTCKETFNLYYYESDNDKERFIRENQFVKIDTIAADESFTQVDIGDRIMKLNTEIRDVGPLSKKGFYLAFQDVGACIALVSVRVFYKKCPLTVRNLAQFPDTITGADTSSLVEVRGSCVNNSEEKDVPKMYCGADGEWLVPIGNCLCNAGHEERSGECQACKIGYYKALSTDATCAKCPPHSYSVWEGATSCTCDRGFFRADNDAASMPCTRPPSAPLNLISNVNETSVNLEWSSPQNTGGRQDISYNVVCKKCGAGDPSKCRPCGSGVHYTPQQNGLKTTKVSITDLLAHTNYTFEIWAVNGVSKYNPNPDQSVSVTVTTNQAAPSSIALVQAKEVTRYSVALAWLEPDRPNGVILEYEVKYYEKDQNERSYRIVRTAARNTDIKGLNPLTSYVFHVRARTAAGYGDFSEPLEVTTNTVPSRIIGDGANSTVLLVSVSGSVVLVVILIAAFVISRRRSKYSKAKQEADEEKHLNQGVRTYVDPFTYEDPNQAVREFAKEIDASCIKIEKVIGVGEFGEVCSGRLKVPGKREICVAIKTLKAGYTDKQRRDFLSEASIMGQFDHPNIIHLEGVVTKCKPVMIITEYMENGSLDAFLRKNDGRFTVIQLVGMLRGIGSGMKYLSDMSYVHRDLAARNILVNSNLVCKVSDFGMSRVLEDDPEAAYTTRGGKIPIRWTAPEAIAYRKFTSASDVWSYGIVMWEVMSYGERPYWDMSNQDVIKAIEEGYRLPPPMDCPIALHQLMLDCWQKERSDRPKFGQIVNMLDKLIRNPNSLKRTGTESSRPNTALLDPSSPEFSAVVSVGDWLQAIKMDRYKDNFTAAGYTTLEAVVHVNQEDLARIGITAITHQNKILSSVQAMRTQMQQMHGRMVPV
# [3] = biological target: T1, human EPHB1 without signal sequence, …; test: flow cytometry on transfected 293F cells
Binder,binding result [1],binding result [2],binding result [3]
B1,binds,binds,
B2,,,no binding
